Source: patent publication US20120129766A1 (IRM, published 2012)

Target: T1, human β-klotho (human, UniProt Q86Z14 1-1044)
T1 sequence (looked up): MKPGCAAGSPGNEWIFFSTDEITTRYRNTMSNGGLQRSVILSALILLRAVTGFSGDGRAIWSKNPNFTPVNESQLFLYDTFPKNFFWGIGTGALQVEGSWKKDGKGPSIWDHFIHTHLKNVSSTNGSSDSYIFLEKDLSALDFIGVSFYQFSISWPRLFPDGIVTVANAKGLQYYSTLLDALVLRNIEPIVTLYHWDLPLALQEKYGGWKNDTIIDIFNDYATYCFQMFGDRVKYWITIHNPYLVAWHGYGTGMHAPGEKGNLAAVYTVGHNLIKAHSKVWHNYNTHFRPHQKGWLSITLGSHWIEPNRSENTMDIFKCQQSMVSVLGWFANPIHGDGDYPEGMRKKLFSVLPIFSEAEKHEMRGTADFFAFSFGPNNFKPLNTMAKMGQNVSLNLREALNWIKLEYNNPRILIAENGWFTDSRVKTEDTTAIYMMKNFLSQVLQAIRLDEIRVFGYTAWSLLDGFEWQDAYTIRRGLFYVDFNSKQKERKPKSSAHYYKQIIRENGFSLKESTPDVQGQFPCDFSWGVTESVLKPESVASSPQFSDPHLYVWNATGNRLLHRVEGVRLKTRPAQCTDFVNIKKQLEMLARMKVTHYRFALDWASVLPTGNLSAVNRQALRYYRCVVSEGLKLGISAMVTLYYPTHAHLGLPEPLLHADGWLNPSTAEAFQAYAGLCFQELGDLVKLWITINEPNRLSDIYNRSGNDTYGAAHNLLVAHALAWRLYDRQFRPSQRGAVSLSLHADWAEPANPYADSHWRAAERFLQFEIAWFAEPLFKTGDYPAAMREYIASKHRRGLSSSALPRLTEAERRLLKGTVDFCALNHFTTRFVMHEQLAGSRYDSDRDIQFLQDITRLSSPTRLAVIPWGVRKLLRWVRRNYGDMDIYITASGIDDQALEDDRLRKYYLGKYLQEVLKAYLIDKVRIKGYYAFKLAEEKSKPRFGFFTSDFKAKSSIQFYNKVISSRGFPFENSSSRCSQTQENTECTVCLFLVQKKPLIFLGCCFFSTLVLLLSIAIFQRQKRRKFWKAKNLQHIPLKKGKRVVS
Experiment: cell-based or functional assay

Binder | EC50 (nM), pERK In Cell Western [nM] | Fold-WT (EC50 of variant / EC50 of FGF21-WT) [fold]
hFGF21(33-209)-V5 (ligand) DSSPLLQFGGQVRQRYLYTDDDQQTEAHLEIREDGTVGGAAHQSPESLLQLKALKPGVIQILGVKASRFLCQKPDGALYGSLHFDPEACSFRELLLENGYNVYQSEAHGLPLHLPGNRSPHRDPASQGPARFLPLPGLPPALPEPPGILAPQPPDVGSSDPLAMVGPSQARSPSYAS | 26 | 9.3
hFGF21(33-209)-V10 (ligand) DSSPLLQFGGQVRQRYLYTDDAQETEAHLEIREDGTVGGAAHQSPESLLQLKALKPGVIQILGVKASRFLCQKPDGALYGSLHFDPEACSFRELLLENGYNVYQSETHGLPLHLPGNKSPHRDPASQGPARFLPLPGLPPALPEPPGILAPQPPDVGSSDPLAMVGPSQARSPSYAS | 18 | 3.3
hFGF21(33-209)-V11 (ligand) DSSPLLQFGGQVRQRYLYTDDDQQTEAHLEIREDGTVGGAAHQSPESLLELKALKPGVIQILGVKTSRFLCQKPDGALYGSLHFDPEACSFRELLLENGYNVYQSEAHGLPLHLPGNRSPHRDPAPQGPARFLPLPGLPPALPEPPGILAPQPPDVGSSDPLAMVGPSQGRSPSYAS | 28 | 18
hFGF21(33-209)-V12 (ligand) DSSPLLQFGGQVRQRYLYTDDDQQTEAHLEIREDGTVGGAAHQSPESLLQLKALKPGVIQILGVQTSRFLCQKPDGALYGSLHFDPEACSFRELLLENGYNVYQSEAHGLPLHLPGNRSPHRDPAPQGPARFLPLPGLPPALPEPPGILAPQPPDVGSSDPLAMVGPSQGRSPSYAS | 14 | 5
hFGF21(33-209)-V13 (ligand) DSSPLLQFGGQVRQRYLYTDDDQQTEAHLEIREDGTVGGAAHQSPESLLQLKALKPGVIQILGVKASRFLCQKPDGALYGSLHFDPEACSFRELLLENGYNVYQSEAHGLPLHLPGNRSPHRDPAPQGPARFLPLPGLPPALPEPPGILAPQPPDVGSSDPLAMVGPSQGRSPSYAS | 11 | 4
hFGF21(33-209)-V14-pool1 (ligand) DSSPLLQFGGQVRQRYLYTDDAQETEAHLEIREDGTVGGAAHQSPESLLELKALKPGVIQILGVKTSRFLCQKPDGALYGSLHFDPEACSFRELLLENGYNVYQSEAHGLPLHLPGNRSPHRDPAPQGPARFLPLPGLPPALPEPPGILAPQPPDVGSSDPLAMVGPSQGRSPSYAS | 6.7 | 1.4
hFGF21(33-209)-V14-pool2 (ligand) DSSPLLQFGGQVRQRYLYTDDAQETEAHLEIREDGTVGGAAHQSPESLLELKALKPGVIQILGVKTSRFLCQKPDGALYGSLHFDPEACSFRELLLEDGYNVYQSEAHGLPLHLPGNRSPHRDPAPQGPARFLPLPGLPPALPEPPGILAPQPPDVGSSDPLAMVGPSQGRSPSYAS | 5.3 | 1.4
hFGF21(33-209)-V14pool 1-N-40 kDa bPEG-AL (ligand, 40 kDa branched PEG (aldehyde reagent) on the N-terminal amine) DSSPLLQFGGQVRQRYLYTDDAQETEAHLEIREDGTVGGAAHQSPESLLELKALKPGVIQILGVKTSRFLCQKPDGALYGSLHFDPEACSFRELLLENGYNVYQSEAHGLPLHLPGNRSPHRDPAPQGPARFLPLPGLPPALPEPPGILAPQPPDVGSSDPLAMVGPSQGRSPSYAS | 107 | 22
hFGF21(33-209)-V14-R154C, L174P (ligand) DSSPLLQFGGQVRQRYLYTDDAQETEAHLEIREDGTVGGAAHQSPESLLELKALKPGVIQILGVKTSRFLCQKPDGALYGSLHFDPEACSFRELLLENGYNVYQSEAHGLPLHLPGNRSPHCDPAPQGPARFLPLPGLPPAPPEPPGILAPQPPDVGSSDPLAMVGPSQGRSPSYAS | 6.7 | 1
hFGF21(33-209)-V14-L174P, R154C-40 kDa bPEG-MA (ligand, 40 kDa branched maleimido-PEG on Cys 154 (numbered on SEQ ID NO:1)) DSSPLLQFGGQVRQRYLYTDDAQETEAHLEIREDGTVGGAAHQSPESLLELKALKPGVIQILGVKTSRFLCQKPDGALYGSLHFDPEACSFRELLLENGYNVYQSEAHGLPLHLPGNRSPHCDPAPQGPARFLPLPGLPPAPPEPPGILAPQPPDVGSSDPLAMVGPSQGRSPSYAS | 21 | 3.3
hFGF21(33-209)-V15 (ligand) DSSPLLQFGGQVRQRYLYTDDAQETEAHLEIREDGTVGGAAHQSPESLLQLKALKPGVIQILGVQTSRFLCQKPDGALYGSLHFDPEACSFRELLLENGYNVYQSEAHGLPLHLPGNRSPHRDPAPQGPARFLPLPGLPPALPEPPGILAPQPPDVGSSDPLAMVGPSQGRSPSYAS | 3.3 | 1.2
hFGF21(33-209)-V16 (ligand) DSSPLLQFGGQVRQRYLYTDDAQETEAHLEIREDGTVGGAAHQSPESLLQLKALKPGVIQILGVKASRFLCQKPDGALYGSLHFDPEACSFRELLLENGYNVYQSEAHGLPLHLPGNRSPHRDPAPQGPARFLPLPGLPPALPEPPGILAPQPPDVGSSDPLAMVGPSQGRSPSYAS | 11 | 6.5
hFGF21(33-209)-V7 (ligand) DSSPLLQFGGQVRQRYLYTDDAQETEAHLEIREDGTVGGAAHQSPESLLQLKALKPGVIQILGVKASRFLCQKPDGALYGSLHFDPEACSFRELLLENGYNVYQSEAHGLPLHLPGNRSPHRDPASQGPARFLPLPGLPPALPEPPGILAPQPPDVGSSDPLAMVGPSQARSPSYAS | 19 | 6.8
hFGF21(33-209)-V18 (ligand) DSSPLLQFGGQVRQRYLYTDDAQQTESHLEIREDGTVGGAAHQSPESLLQLKALKPGVIQILGVQTSRFLCQKPDGALYGSLHFDPEACSFRELLLENGYNVYQSEAHGLPLHLPGNRSPHRDPAPQGPARFLPLPGLPPALPEPPGILAPQPPDVGSSDPLAMVGPSQGRSPSYAS | 15 | 2.7
hFGF21(33-209)-V52 (ligand) DSSPLVQFGGQVRQRYLYTDDAQQTEAHLEIREDGTVGGAAHQSPESLLQLKALKPGVIQILGVKTSRFLCQKPDGALYGSLHFDPEACSFRELLLENGYNVYQSEAHSLPLHLPGNKSPHRDPASQGPARFLPLPGLPPALPEPPGILAPQPPDVGSSDPLSMVGPSQARSPSYAS | 66 | 94
hFGF21(33-209)-V53 (ligand) DSSPLLQFGGQVRQRYLYTDDAQETEAHLEIREDGTVGGAAHQSPESLLELKALKPGVIQILGVKTSRFLCQKPDGALYGSLHFDPEACSFRELLLENGYNVYQSEAHGLPLHLPGNRSPHRDPASQGPARFLPLPGLPPAPPEPPGILAPQPPDVGSSDPLAMVGPSQGRSPSYAS | 4.2 | 1.3
hFGF21(33-209)-V54 (ligand) DSSPLLQFGGQVRQRYLYTDDAQQTEAHLEIREDGTVGGAAHQSPESLLELKALKPGVIQILGVKTSRFLCQKPDGTLYGSLHFDPEACSFRELLLENGYNVYQSEAHGLPLHLPGNRSPHRDPASQGPARFLPLPGLPPAPPEPPGILAPQPPDVGSSDPLAMVGPSQGRSPSYAS | 25 | 9.2
